Data taken from paper PMC8195987, “Structural basis for plazomicin antibiotic action and resistance” (Communications Biology, 2021).

Biological target: the molecule itself
Test: crystal structure; AAC(2′)-Ia at 10 mg/mL with 10 mM acetyl-CoA and 10 mM plazomicin, sitting-drop vapor diffusion at 4 °C, reservoir 0.2 M LiCl and 40% (v/v) MPD; product-bound state (acetylated plazomicin and CoA)

B1: AAC(2′)-Ia from Providencia stuartii (enzyme)
chain: MGIEYRSLHTSQLTLSEKEALYDLLIEGFEGDFSHDDFAHTLGGMHVMAFDQQKLVGHVAIIQRHMALDNTPISVGYVEAMVVEQSYRRQGIGRQLMLQTNKIIASCYQLGLLSASDDGQKLYHSVGWQIWKGKLFELKQGSYIRSIEEEGGVMGWKADGEVDFTASLYCDFRGGDQW
notes: AAC(2′)-Ia, aminoglycoside 2′-N-acetyltransferase of Providencia stuartii; synthesized aac(2′)-Ia gene cloned in pET-15b between NdeI and BamHI, N-terminal HIS-tag followed by a thrombin cleavage site; the tag was removed with thrombin; Homodimer in the crystal, each unit with acetylated plazomicin and CoA in the active site; also called aminoglycoside 2′-N-acetyltransferase; AAC(2′)-Ia …
binding result: binds
